Experimental data from US20180105596A1 (ELSALYS BIOTECH, published 2018).

Molecular target: T1, recombinant His-Strep tagged human Tyro3 extracellular domain (human, UniProt Q06418 41-429)
T1 construct: also called hTyro3 ECD; full Tyro3 ECD
T1 sequence: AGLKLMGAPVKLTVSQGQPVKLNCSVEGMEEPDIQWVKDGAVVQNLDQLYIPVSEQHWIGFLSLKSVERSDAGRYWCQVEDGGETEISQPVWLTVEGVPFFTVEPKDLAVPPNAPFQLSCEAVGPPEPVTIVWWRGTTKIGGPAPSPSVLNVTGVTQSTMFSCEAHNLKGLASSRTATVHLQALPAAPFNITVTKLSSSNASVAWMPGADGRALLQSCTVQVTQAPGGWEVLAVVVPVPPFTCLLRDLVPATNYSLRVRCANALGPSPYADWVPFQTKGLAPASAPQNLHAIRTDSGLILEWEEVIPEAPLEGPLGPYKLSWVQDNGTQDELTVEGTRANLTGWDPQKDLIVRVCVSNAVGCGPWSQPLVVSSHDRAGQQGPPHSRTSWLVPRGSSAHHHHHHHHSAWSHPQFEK
Assay: sandwich ELISA, Strep-tagged hTyro3 ECD captured on StrepMAB plate, scFv 3-fold from 10 µg/mL, anti-FLAG-HRP
Method: A double sandwich ELISA was developed. This assay consisted in measuring the binding of the anti-Tyro3 antibodies to be tested on immobilized strep-tagged entire human Tyro3 ECD captured directly on ELISA plate pre-coated with an anti-strep mAb (StrepMAB-Immo coated microplates from IBA biotech). Briefly, the 96 wells of StrepMAB-Immo coated microplate were washed three times with 300 μL of the PBS Tween 0.2% (referred as ELISA washing solution). The capture of an excess of purified strep tagged hTyro3 ECD protein was achieved by a one hour incubation at room temperature. In these experiments, 3 μg of purified protein diluted in PBS, BSA 1% (referred as ELISA diluent solution) were immobilized per well. The wells were washed three times with 300 μL of the washing solution. The non-specific binding sites on the well surface were blocked during 60 min at room temperature with 200 μL/well of blocking solution (PBS, BSA 3%). The wells were washed five times with 300 μL of the washing solution. Then, 100 μl (in duplicates) of the different concentrations of anti-Tyro3 antibodies to be tested diluted in ELISA diluent solution, were added per well and allowed to incubate during 1 hour at room temperature. An Irrelevant control IgG2656 was also added in this experiment. For anti-Tyro3 antibodies in the ScFv format, experiments were performed with 6 concentrations in duplicates (FIG. 3A). […]

binding result: binds
B1: anti-Tyro3 scFv 2717 (scFv, V domains shown)
VH: EVQLVQSGADVKKPGASLTISCQASGYTFTDYWISWVRQKPGKGLEWMGEIFLPPSTTVYGPSFQGHVTISADRSTATAYLQWRSLEASDTAMYYCVRQTRLTSGGTIPEYYQHWGPGTLVTVSS
VL: SYELTQPPSVSVSPGQTARITCSGDALPKKYAYWYQQKSGQAPVLVIYEDNKRGSGIPERFSGSSSGTMATLTISGAQVEDEADYYCYSKSPEGNYMVFGGGTKLTVL
notes: Tested as a single-chain Fv made in E. coli
